Assay in all cases: EMSA; 0.25 nmol RNA in 10 ul; peptide:RNA molar ratio 0-1
Settings in all cases: hairpin

The target of one series is T1, Tat-P (HIV, UniProt P69698).
T1 chain: YGRKKRRQRRR

A further series deals with T2, Con-P2.
T2 chain: ARPLEHGSDKAT

The target of the next series is T3, Con-P1.
T3 chain: RRQRRTSKLMKR

Consider GCCAGAUCUGAGCCUGGGAGCUCUCUGGC (structured_RNA) [TAR RNA 29mer], for which the binding result with Tat-P is reported as “binds”; with Con-P2, “no binding”; with Con-P1 it was “no binding”.
